Among the data in the NTF2 design screens of Basanta et al. (2020) are protease stability score values, retold here.

This data set can be described thus: protease stability score; higher = more stable; yeast display proteolysis, trypsin and chymotrypsin.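 Also: log10 excess protease needed over predicted unfolded state with 0 meaning unfolded.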
For the sequence “DEDRYERLVKKAFEMIVKGNEEEVRKLLKPDVDYEYADHKFRGEEAAQFIVRLVQKVGAQAEVRRHKVEGNTATADFVYHDGDQTVQTRAEVTYEGDKLKQARVENTEEVKKLDHKG”, the protease stability score amounted to 0.003. The figure for “DEDRYKKLMDKAFKLIMSGDEETMIKMLKPDVQYEYIDTKYEGEQVAKVIVRIVQKVGAEVRIKRKEHKGDKARADFDYHNGDQTVRTTAEVRYEGDKLKEARVKMTDEVKKVVQRG” is 0.028; for “DEDRYRRKIEEVFKQVENGDEKKMKKDLKENVKYKYADKEKEGPEVAEHIVKVVKKIGAEVTRKEQEVKGDTLRAKFQYRKGDQTVRTEAEATYEGDQAKEVRVKMTDEVKKIVHQG” it is 0.05. “DEDSDRSVAQEFFEAVQRGNKSDVHRLADKDAKAEVGEKDIDGREELTKWVRELKRRVDHLDVKSITNKPGRVHFDAEYHFNGTTEKMVIVVQVHNGKVKEVTVQRG” showed a protease stability score of 0.908. Turning to “DEDSEAHKLLRELEKVLSTGDEDKMRRLADPNASIRIGDTQIRGRTQIQDHVKRHKEHVDKVSIDVKEVTAQGNKANMKYVIRVQINGRTHQEQVRVDVDLQGDKFKIKQWTEG”, the protease stability score is 0.055. “DEDSEATEVAKTMHKNMKEGDPDKFMDQFDKDVRVQVGDKVYHGRDNALKWVREMLKRVDHVNFQVKRVRRQGDSVVLHLEVTLNQNGKHDKTTFVIHFTKQGDKFRADHLREQ” gave a protease stability score of 1.86. Sequence “DEDSEFEAARRFFKAVQTGDEDEAMRQMDEDASARVGDKTYHGREHARKAMHNFRQEVDHIDVTTFDKSNGRLDVNAILEHNGKTKSVKINIQASNGHVKSVNIQDK” came in with a protease stability score of -0.103. “DEDSHKKLLEEMKDILNHGNFKNMLELADKNVRMQVGDKQYTGHSEFEDFLEHQRRQIDHLQVTDFKVSGENLVLTATANVNGKHVTIRFVVFFENGKMVRMEVDPSFQKQLES” returned a protease stability score of 0.87. Regarding “DEDSQAHEIAQHFIELLKHNNEDDMKKYIDPNAKAQYGDKRVHGRNHVIRTFKEMRDKVDHISVEIKSIKANGEKISADMVVTFNVNGKNETVQYVLIFQVQGERVRVTHVKID”, the protease stability score turned out to be 0.796.

“DEDSQTKLAELFITALEEGDPELANKNVDENARADVGDKTLHGREDVSRMVHDLRRRADHIQVETLEVRNGRVDAIIVIDVNGKKVRFRMEIEIHNGRIKHLRMKSE”: the protease stability score turned out to be 0.653. Take “DEDTALTIAEQVMKAIQRGDEEEAEKLGKPDVEVQAFNERNKGQEMLKKAVEYVKKVGDQFEYKETRKEGNQVVTVVQVTRGGRTMEYKVDVKVEGGKVKLWRVEIPEEFAKVVEKS”: the protease stability score is 0.013. Turning to “DEDTARKQVQIYKDNDPNQLVRMFDENARLKVGDQTVDGREELERWVKRLRTRVDRYSYKNVDIQGERVVIDMVMVVDGKQVEFVVEFVVEDGRIKNAKVQARNKDEETKLQEAIG”, the protease stability score stood at 1.25.

In turn, “DEDTESNFRQFIRAWKSGNPNELRRLAPPDAHLKVGDKEWHGMEKAVTYLEREVKESTFDIKRWDVKVDGNSVTAHVKMVVHDNGQPNNYKVEMNANFHNGQIESYNVETRK” gave a protease stability score of 0.267.

In turn, “DEDTIKKLVKRMIDALVKNNTEEARRLLKPDVRFEAVDTEVRGPDQVATYYKKVKDLGVEIRVKEYKVEGNHAKVKYDMRHGGDQITVEAELEAKDSKVDRFRHEDDEKYQKTVKHG” returned a protease stability score of 0.154.

Consider “DEDTIRKVNRSFLEAVQHNDDDTLRRLLDEDAHAQYGDKTVHGKTEVVKMILTFVEQVDSLDYKSITATGDHVDVKVDAKHNGRTLDVRIIMRIENGRFTHVQFDIR”, for which the protease stability score was 0.075. Sequence “DEDTIRRQAKEFFKNFRDNDEDSLRTLMDENVEARYGDKTYHGRESVLTALATVLSQIDHLEVENLHVHNGRIEVVMKFVVNGREVRMNVIFHIRNGRIKKINIDPDEQRKLES” gave a protease stability score of 1.49. “DEDTLKHMAREFVKALQTGDEDRLSEMVDENVRIDYGDKTVSGRKKAQEYAHRVRKQVDHIEVREVEVHGNKVEIDAVLVFNGQRLTVTFRIIMRNGKVQHIQLEVTDPDKQRKAEQ” gave a protease stability score of 1.26. The figure for “DEDTLKKLFEQVFKYVQKGNTKELKKVIDESVEFQFGDHRYKGVDQYIKLIKEFKDRGVQFRVEEAQQKDDDVTMRTKIRYGNKEVTVKAQARYDGGHAKHFRVELSEEAKKALKTG” is 0.292; for “DEDTLKKMAQKIADAIRKGDEDQMERLADEDARMSYGDTTWHGRQEVKKAVREFRNQFDHLTIKRITVKGEKVKIDAEFTVNGREVSFVVIAHVNNGRLKEVVVHFTDPDTLHEALK” it is 0.622; for “DEDTLRKVAETLMKALKTNDSESLKQMMDKDVKMTVGDKKYQGREEAADHLIELAQSVDHLEVRSVDNQGNHASVEFEVQHNGRNDTVHLRFEISNGRVKNVVLHTP” it is 1.99. On to “DEDTLRTQEEQFKRNNPDDLKKQFDPNAKIRYGDKEITGREDLKKFIDKLRKRIDHYRVRSINIKGEHVRADVVVVVDGRHVRYKVIRHLDNGKVKSLEVKFTSEEQEKKFKEALD”, for which the protease stability score worked out at 0.261. As to “DEDTNREQVKRFEEAQQENDPDKWMDNLDENARLDVGDTRVHGSKEIMKHFKRLNDKIDHWRVQSFEFHNGRMKLNAVARVNGKRLKMQFQANVHNGKFTELRMDPDAVRKITS”, the protease stability score came to 0.413. The sequence “DEDVEDRVRRFLEQVNHNNPQDLSKYMDPNARLDIGDKVLHGREDIHKFWEDLIRESRIEVREMDVKVHNGRVSATVRFVEHENGNPRETVMKITATWSNGRAQFMRFQSDG” displayed a protease stability score of 0.82. The figure for “DEDVERIIKRFLTALTHNDPEQAAQNVDPNAQVRIGDKSVHGKDQLKNRIEEEVKEMRVDIKHMSVDVKGNKASIHLHFVIQTNGKPDEKTAVMEVVVQGDKIHELELHDTK” is 0.725; for “DEDVKELAEKYWKVVKEGNPHEVKKMVDPNVKFNVGEQHIHGREEVARQVSKENREIRINYQLRDVKVHNGRVDVTADLEEEHNGKPETNKVKAHFVFRNGRVQTLSQTNKK” it is -0.031. “DEDVKKLFEDWLRALQTNNPDEVNEMADPNVTVKVGNKVVHGREQLNKDLKEETKHIRVTYHHVDLTVHNGRAKARLDVTVNVNGRPVRFQFNVTVHARNGRVVSMHVQIPHEVLETIKQ” gave a protease stability score of 1.57. Regarding “DEDVKRMIEDFIEAEKKNNPRQLKKNADPEAEADVGDTKVHGMDHFAREVKKRMDQMRVSVDYKSITVDGNTIKAKARVSENHNGRPKHNTATLEFRAHNGRIKEIRHHEDK”, the protease stability score is -0.332. “DEDVKRVMEELVKVMHNNDPNEFMKLLDPNARWTIGDKTYHGRDNLRREVKKHHDQQRVQYKSWHIDVHGERATATAEVRVDHNGQPDTFRLVISAQAHNGRVKRAEYRKDT” gave a protease stability score of -0.145. As to “DEDVQDQYRKILEAEKKNNPDHLNELMDPNVKFNVGDHTIHGREQRKEKQDELVKESRYDIKVDRVSVKGNKFVAKFKVTEEHNGRPHTTVLVIVMTVENGHVKRLQVKRDK”, the protease stability score was -0.001. The figure for “DEDVQKIAETFWRVLKQGNEDDARRLIDPNARINVGNKNYHGREQIAEIIKKKKEEIRFSIDDVKVRVHNGELTASIDFKVNVNGRPDSIHVEFRMVVHNGKIVQIQMQVDEDWMKELES” is 0.788. The figure for “DEDVVDEFRRAIESNDFDRLVELADENAKADIGNKTVRGRDEMKDLMTSQKRRVDHLQVTSFSIDGDKLTVRYIANIDGHKIDNVVRFVAHNGKLKHMEVRARSEEQQKTLEKLIG” is 0.059.

“DEDVVKEWMTDQRNNNEKRLQSLVDPNAKLEYGDKSIHGDEEMHEWAKKLRESVDHWEVKEYDIHNGTAEADVVVQFNGREIRYQFVAVAHNGSVTSIVYRARDEDFERFLDDIFS” came in with a protease stability score of 0.165. In the case of “DEEAAKHVNRMLEKGDEKKIAQHVDKDARAHVGNQELHGREDIIRAVTRFRQQADHMRVDSYEVQGDRIEVTFEVVVNGHKMQLKATIRVDNGRIKHNKIQARSEEQTKQMQKLLD”, the protease stability score was -0.171. The sequence “DEEAAKKMMETWMKAVQKGDEKTVQKVYKPNGRWVHIDEERQGVEVVVKMMQQVKKQGVEFQIRRAKVEGDRVQFVYDLRLGDKTATFTVELQAQGGRVQEVKAEVSEEAKEIVTKG” registered a protease stability score of 0.14.

Turning to “DEEAAKKVKTLVEHGDFQQMARNFDEDARVVIGDRVVHGREQAIEAMRRFDEAVDHQEVKSVTSSGNKVKFNIQAHVDGKTVRMIVVIEMHNGKLKMVRFDATSEDLRRILKRSLG”, the protease stability score is 1.27. “DEEAAKLMRKMQQAVRSNNPEEVQRMMDPNASAKYGDKEVHGREEIATHLVKETRRMHIHYDVEHITVDNGRADVTADVQQEHNGKPERRKYKVHIEVRGDKLVHLRFETRK” gave a protease stability score of 0.06. The result for “DEEAAKRAEEYLKALRSGNPDDLKKQIDPNASYQIGDKRVHGREQQATLAHNLQHNMRMEWELKDYRVQGNSVTLEIDVVIEHNGRPEKFKADVRVTFHNGKIQEMTVREDK” reads 0.051; that for “DEEAAKRLENILKAEERNDEDSLRRLMDKDAHINVGDRQVHGMDRRRENVQHQSRRSDIQLESINKHENGDTVHVDVVRRYQHNGRPSRERFDAVAQVHNGKMRSMTAQDSQ”, -0.44. On to “DEEAARKFEHALRVREHGNEHQLQELVDPNARVSIGDKRVKGHERIQHWQETLHHEMRFRMQVDSYEVQGEKVRFNVRVQYDINGQPVDDRMTLVVQFDNGRIKSVEYQIPTEMKRDLKR”, for which the protease stability score is 0.032.

Turning to “DEEADKRITEQLKQEQEGDKDKVKEQIDPNARIKVGDKTIHGMDEYVRMVHRTRREQRRRIRVVSVEVRGNTAKVDADRHIDVNGRPVRYRIEFHVEFHNGKVTDIHVHTDQEQKKKQHG”, the protease stability score was found to be 0.655. The figure for “DEEAEDLVKELWKAWKHNDPDTWVKQLPPDARISVGNKEVHGREQARHEFERQVERMQVRLKVDSVHNRGNKAHFHVTVDASVNGKPVTFTVEVVITFHNGKAKYIEMRMSEEQFDKFQG” is 1.41. The result for “DEEAEHVARELQKAQETGNPKRARHMMDENARIQVGDHRIHGMSRYLEDLRRKQEEIRIEFKRVSHNVNGNRVVINFLAVYEVNGHPVHLRIQLSFEIHNGRAQTMDVNISEQQMRDIER” reads -0.022. The sequence “DEEAEKELRKMFQNENKGNPNEVMKQFDKHARVKVGEKEIRGRHQVHNYVDHVRKEMRRQIDSMSLEVHGNKLIVHITYVADINGHPVRVQVQYIIQFHNGKIKEVKVKIDEDEKRRMDQ” displayed a protease stability score of 0.385. “DEEAEKLAREFIKAVQTGDEEELNELMDPNARFRIGNKTFHGMTNAAKEFNDKRREAHIEYHITSIRVSGDHVEVKVEVHVNVNGKPVHNEVTMDFKRHNGRIRDFQVQIDEEDQKKQDK” gave a protease stability score of 1.29. “DEEAEKRFEELMENRKTGNEHDVSEYADPNVTARIGDHEVRGREQLHDLQRKEKEEMRVDIKDYRLDFNGDTVRVEVHLEDEHNGRPRDRHQSNSFRWQNGKLKELHIRSDK” gave a protease stability score of -0.353. On to “DEEAEKVYRKMLHALRTGNEHQLKKLMDPNVHVKVGDKHIHGREDVAQEQRTDRQRWRNDQQLVTFHAEGDQVEFTVEYVIEVNGQPDKDRYKAFFRFDNGKIKEFQVDIDPKELKEQLN”, for which the protease stability score stood at 0.096. In turn, “DEEAERIAEEFIRAQQTGDKDRLRKLMDPNARANVGDKRYHGMERWAKDVARTMHEQRVEIKDLKISVQGNKADVHIDLVVDHNGQPRRFDMRLDFRFNNGTIKEVSYDDKR” yielded a protease stability score of 0.391.
